{"source": "patent US20080267976A1", "about": "(published 2008)", "binders": {"B1": {"name": "H3.69_V2/L3.71 AC10 IgG(1/2) ELLGG antibody (XmAb2513) (antibody)", "heavy": "QVQLVQSGAEVKKPGASVKVSCKVSGYTFTDYYITWVRQAPGQALEWMGWIYPGSGNTKYSQKFQGRFVFSVDTSASTAYLQISSLKAEDTAVYYCANYGNYWFAYWGQGTLVTVSSASTKGPSVFPLAPSSKSTSGGTAALGCLVKDYFPEPVTVSWNSGALTSGVHTFPAVLQSSGLYSLSSVVTVPSSSLGTQTYICNVNHKPSNTKVDKKVEPKSCDKTHTCPPCPAPELLGGPDVFLFPPKPKDTLMISRTPEVTCVVVDVSHEDPEVQFNWYVDGVEVHNAKTKPREEQFNSTFRVVSVLTVVHQDWLNGKEYKCKVSNKALPAPEEKTISKTKGQPREPQVYTLPPSREEMTKNQVSLTCLVKGFYPSDIAVEWESNGQPENNYKTTPPMLDSDGSFFLYSKLTVDKSRWQQGNVFSCSVMHEALHNHYTQKSLSLSPGK", "light": "EIVLTQSPDSLAVSLGERATINCKASQSVDFDGDSYLNWYQQKPGQPPKVLIYAASTLQSGVPSRFSGSGSGTDFTLTINSLEAEDAATYYCQQSNEDPWTFGGGTKVEIKRTVAAPSVFIFPPSDEQLKSGTASVVCLLNNFYPREAKVQWKVDNALQSGNSQESVTEQDSKDSTYSLSSTLTLSKADYEKHKVYACEVTHQGLSSPVTKSFNRGEC"}}, "biological_target": "extracellular region of human V158 FcγRIIIa fused with glutathione S-Transferase (GST) (human;, UniProt P08637 17-208)", "sequence (P08637 17-208 F176V)": "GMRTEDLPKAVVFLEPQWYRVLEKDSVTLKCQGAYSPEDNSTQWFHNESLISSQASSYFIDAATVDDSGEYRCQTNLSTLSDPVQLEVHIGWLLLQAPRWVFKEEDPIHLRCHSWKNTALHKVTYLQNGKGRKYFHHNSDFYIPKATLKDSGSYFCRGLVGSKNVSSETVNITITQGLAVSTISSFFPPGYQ", "assay": "competition AlphaScreen", "data": [{"binder": "B1", "values": [{"measurement": "IC50", "result": 38, "unit": "nM"}]}]}
